The numbers were not newly measured in paper PMC10866363, which cites them from elsewhere.

In the data set the target is Trigger factor (Escherichia coli) (UniProt P0A850).

Trigger factor, sequence (P0A850 whole entry): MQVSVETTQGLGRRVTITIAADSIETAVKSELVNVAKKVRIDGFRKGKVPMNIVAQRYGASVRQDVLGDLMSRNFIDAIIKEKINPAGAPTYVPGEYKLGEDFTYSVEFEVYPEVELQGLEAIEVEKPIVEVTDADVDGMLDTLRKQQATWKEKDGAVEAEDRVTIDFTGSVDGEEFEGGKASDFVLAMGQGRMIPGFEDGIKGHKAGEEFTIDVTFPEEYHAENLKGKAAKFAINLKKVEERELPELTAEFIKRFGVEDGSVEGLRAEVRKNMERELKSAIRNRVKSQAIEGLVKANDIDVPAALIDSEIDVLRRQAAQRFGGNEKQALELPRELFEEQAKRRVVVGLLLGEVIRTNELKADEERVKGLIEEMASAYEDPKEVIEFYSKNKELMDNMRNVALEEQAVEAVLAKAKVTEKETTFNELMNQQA

Take Trigger factor (from UniProt P0A850): the Kd (usually the constant that tells how readily two partners part at equilibrium) was 2 µM.
